Measured values taken from article PMC10786891, “Massively parallel profiling of RNA-targeting CRISPR-Cas13d”.
Changes are numbered by the printed parent chain. Numbers in names are those of the source.

T1: EsCas13d, nuclease-dead (Eubacterium siraeum, UniProt B0MS50, R295A;H300A;R849A;H854A)
T1 sequence: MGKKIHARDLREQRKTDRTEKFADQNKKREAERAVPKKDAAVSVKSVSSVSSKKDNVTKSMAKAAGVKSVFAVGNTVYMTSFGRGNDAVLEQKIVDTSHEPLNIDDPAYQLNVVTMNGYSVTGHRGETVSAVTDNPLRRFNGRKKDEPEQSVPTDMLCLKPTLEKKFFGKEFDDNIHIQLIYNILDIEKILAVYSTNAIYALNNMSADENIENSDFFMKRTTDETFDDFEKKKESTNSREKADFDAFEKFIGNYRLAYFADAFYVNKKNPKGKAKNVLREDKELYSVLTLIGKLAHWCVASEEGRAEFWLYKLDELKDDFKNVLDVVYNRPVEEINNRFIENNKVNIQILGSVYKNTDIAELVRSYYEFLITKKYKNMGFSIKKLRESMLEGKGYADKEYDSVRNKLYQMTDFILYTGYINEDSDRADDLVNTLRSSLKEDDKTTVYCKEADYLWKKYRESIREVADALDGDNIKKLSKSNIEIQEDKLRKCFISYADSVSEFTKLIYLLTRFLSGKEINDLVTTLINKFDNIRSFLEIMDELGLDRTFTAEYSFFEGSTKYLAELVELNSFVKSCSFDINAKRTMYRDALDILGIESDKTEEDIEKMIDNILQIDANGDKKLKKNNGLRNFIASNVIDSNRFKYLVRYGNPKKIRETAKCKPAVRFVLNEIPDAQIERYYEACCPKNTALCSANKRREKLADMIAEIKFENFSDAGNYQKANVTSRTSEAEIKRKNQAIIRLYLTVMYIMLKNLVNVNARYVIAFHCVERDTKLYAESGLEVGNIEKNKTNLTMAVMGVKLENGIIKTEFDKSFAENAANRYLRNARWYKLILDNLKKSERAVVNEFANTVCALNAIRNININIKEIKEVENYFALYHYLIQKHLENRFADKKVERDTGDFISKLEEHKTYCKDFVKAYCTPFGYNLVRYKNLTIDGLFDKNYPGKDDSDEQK

B1: target 1 insC 3' of 10,insG 3' of 6 (mixed)
RNA 1: CACCCGUGCAAAAAUGCAGGGGUCUAAAACUGAGCGGAUAACCUCUCUAUGG
RNA 2: GGGAAUGGAUCCACAUCUACGAAUUCGUACCAUAGAGAGGUUCAUCCGGCUCACCGAGAUCGGAAGAGCACACGU
B2: target 1 G5C,G13U (mixed)
RNA 1: B1 RNA 1
RNA 2: GGGAAUGGAUCCACAUCUACGAAUUCGUACCAUAGAGAUGUUAUCCCCUCACCGAGAUCGGAAGAGCACACGU
B3: target 1 insU 3' of 22,insU 3' of 1 (mixed)
RNA 1: B1 RNA 1
RNA 2: GGGAAUGGAUCCACAUCUACGAAUUCGUACUCAUAGAGAGGUUAUCCGCUCAUCCGAGAUCGGAAGAGCACACGU
B4: target 1 insU 3' of 12,insA 3' of 5 (mixed)
RNA 1: B1 RNA 1
RNA 2: B1 RNA 2 with C43U, G49A
B5: target 1 G13A,A14U (mixed)
RNA 1: B1 RNA 1
RNA 2: B2 RNA 2 with A38U, U39A, C47G
B6: target 1 A1U,U11G (mixed)
RNA 1: B1 RNA 1
RNA 2: B2 RNA 2 with U39G, U41G, C47G, A51U
B7: target 1 insC 3' of 8 (mixed)
RNA 1: B1 RNA 1
RNA 2: GGGAAUGGAUCCACAUCUACGAAUUCGUACCAUAGAGAGGUUAUCCCGCUCACCGAGAUCGGAAGAGCACACGU
B8: target 1 G13U,A14U (mixed)
RNA 1: B1 RNA 1
RNA 2: B2 RNA 2 with A38U, C47G
B9: target 1 G5A,U10G (mixed)
RNA 1: B1 RNA 1
RNA 2: B2 RNA 2 with U39G, U42G, C47A
B10: target 1 insA 3' of 21,insG 3' of 16 (mixed)
RNA 1: B1 RNA 1
RNA 2: GGGAAUGGAUCCACAUCUACGAAUUCGUACCAAUAGAGGAGGUUAUCCGCUCACCGAGAUCGGAAGAGCACACGU
B11: target 1 G5U,A14C (mixed)
RNA 1: B1 RNA 1
RNA 2: B2 RNA 2 with A38C, U39G, C47U
B12: target 1 A9U,A18C (mixed)
RNA 1: B1 RNA 1
RNA 2: B2 RNA 2 with A34C, U39G, A43U, C47G
B13: target 1 A14G,C21U (mixed)
RNA 1: B1 RNA 1
RNA 2: B2 RNA 2 with C31U, A38G, U39G, C47G
B14: target 1 insA 3' of 5,insU 3' of 2 (mixed)
RNA 1: B1 RNA 1
RNA 2: B1 RNA 2 with C43A, A44U, U45C, C47G, G48A, G49C, C50U, U51C, C52U
B15: target 1 insG 3' of 22,insA 3' of 3 (mixed)
RNA 1: B1 RNA 1
RNA 2: B3 RNA 2 with U31G, C51A, A52C, U53A
B16: target 1 insC 3' of 12,insA 3' of 8 (mixed)
RNA 1: B1 RNA 1
RNA 2: B1 RNA 2 with U41C, C43U, C46A, G48C
B17: target 1 U3G,G13C (mixed)
RNA 1: B1 RNA 1
RNA 2: B2 RNA 2 with U39C, C47G, U49G
B18: target 1 insG 3' of 21,insA 3' of 7 (mixed)
RNA 1: B1 RNA 1
RNA 2: B10 RNA 2 with A32G, G39A, A40G, G42U, U44A, A45U, U46C, C47A
B19: target 1 G15U,G17C (mixed)
RNA 1: B1 RNA 1
RNA 2: B2 RNA 2 with G35C, G37U, U39G, C47G
B20: target 1 insU 3' of 14,insC 3' of 3 (mixed)
RNA 1: B1 RNA 1
RNA 2: B1 RNA 2 with G39U, U41G, C43U, G49C, C50U, U51C
B21: target 1 del11,del13 (mixed)
RNA 1: B1 RNA 1
RNA 2: GGGAAUGGAUCCACAUCUACGAAUUCGUACCAUAGAGAGUAUCCGCUCACCGAGAUCGGAAGAGCACACGU
B22: target 1 insC 3' of 17,insC 3' of 3 (mixed)
RNA 1: B1 RNA 1
RNA 2: B3 RNA 2 with U31C, C32A, A33U, U34A, A35G, G36C, A52C, U53A
B23: target 1 insU 3' of 7,insA 3' of 5 (mixed)
RNA 1: B1 RNA 1
RNA 2: B1 RNA 2 with C43A, A44U, U45C, C46U, G49A
B24: target 1 insA 3' of 17,insC 3' of 3 (mixed)
RNA 1: B1 RNA 1
RNA 2: B1 RNA 2 with G37A, A38G, G39A, U41G, C43U, G49C, C50U, U51C
B25: target 1 insU 3' of 22,insG 3' of 1 (mixed)
RNA 1: B1 RNA 1
RNA 2: B3 RNA 2 with U53G
B26: target 1 insU 3' of 22,insC 3' of 1 (mixed)
RNA 1: B1 RNA 1
RNA 2: B3 RNA 2 with U53C
B27: target 1 C2A,G12C (mixed)
RNA 1: B1 RNA 1
RNA 2: B2 RNA 2 with U39G, G40C, C47G, C50A
B28: target 1 insU 3' of 22,insA 3' of 2 (mixed)
RNA 1: B1 RNA 1
RNA 2: B3 RNA 2 with U53A
B29: target 1 del15,del17 (mixed)
RNA 1: B1 RNA 1
RNA 2: B21 RNA 2 with G35A, A38G, G39U
B30: target 1 insA 3' of 21,insC 3' of 9 (mixed)
RNA 1: B1 RNA 1
RNA 2: B10 RNA 2 with G39A, A40G, G42U, U44A, A45C
B31: target 1 C4G,U10A (mixed)
RNA 1: B1 RNA 1
RNA 2: B2 RNA 2 with U39G, U42A, C47G, C48G
B32: target 1 insA 3' of 19,insA 3' of 11 (mixed)
RNA 1: B1 RNA 1
RNA 2: B10 RNA 2 with A33U, U34A, G39A, A40G, G42U, U43A
B33: target 1 U3G,A9C (mixed)
RNA 1: B1 RNA 1
RNA 2: B2 RNA 2 with U39G, A43C, C47G, U49G

Target: T1, EsCas13d, nuclease-dead
Assay: crRNA (strand 1, pre-loaded); Mg2+; 40 mM Tris-HCl pH 7.5, 150 mM NaCl, 6 mM MgCl2, 1 mM DTT, 0.1% Tween-20, 0.2 mg/ml BSA; 25 C; 10 min per concentration, then washed
Conditions: tags: His6-TwinStrep-SUMO cleaved; N-terminal SNAP kept (SNAP-Surface 488); label: 3' end held by stalled T7 RNA polymerase

| Binder | Kd [nM] |
| --- | --- |
| B1 | 18.8 ± 2.1 |
| B2 | 40 ± 9 |
| B3 | 37 ± 6 |
| B4 | 4.32 ± 0.35 |
| B5 | 6.6 ± 0.7 |
| B6 | 20.8 ± 0.9 |
| B7 | 13.2 ± 0.7 |
| B8 | 8.2 ± 0.4 |
| B9 | 35 ± 4 |
| B10 | 51 ± 5 |
| B11 | 20.7 ± 1.5 |
| B12 | 60 ± 5 |
| B13 | 6.9 ± 0.4 |
| B14 | 14.7 ± 0.9 |
| B15 | 25.6 ± 2.3 |
| B16 | 12 ± 0.9 |
| B17 | 30.3 ± 2.3 |

| Binder | Kd [nM] |
| --- | --- |
| B18 | 46 ± 5 |
| B19 | 34.6 ± 3 |
| B20 | 80 ± 40 |
| B21 | 11.1 ± 0.9 |
| B22 | 60 ± 13 |
| B23 | 17.4 ± 1 |
| B24 | 14.8 ± 1.1 |
| B25 | 35 ± 4 |
| B26 | 29.1 ± 2.4 |
| B27 | 7.21 ± 0.25 |
| B28 | 33.5 ± 2.8 |
| B29 | 90 ± 40 |
| B30 | 31.5 ± 2 |
| B31 | 4.87 ± 0.25 |
| B32 | 41.3 ± 2.2 |
| B33 | 9.4 ± 0.7 |
